# Results reported in patent US20230212275.
# What was measured:
# [1] = molecular target: C3b (Complement Technology, Inc, A113) (UniProt P01024)
# [2] = molecular target: C3b (Complement Technology, Inc, A113), P01024
# Sequence of C3b (Complement Technology, Inc, A113), P01024 (P01024 whole entry, looked up): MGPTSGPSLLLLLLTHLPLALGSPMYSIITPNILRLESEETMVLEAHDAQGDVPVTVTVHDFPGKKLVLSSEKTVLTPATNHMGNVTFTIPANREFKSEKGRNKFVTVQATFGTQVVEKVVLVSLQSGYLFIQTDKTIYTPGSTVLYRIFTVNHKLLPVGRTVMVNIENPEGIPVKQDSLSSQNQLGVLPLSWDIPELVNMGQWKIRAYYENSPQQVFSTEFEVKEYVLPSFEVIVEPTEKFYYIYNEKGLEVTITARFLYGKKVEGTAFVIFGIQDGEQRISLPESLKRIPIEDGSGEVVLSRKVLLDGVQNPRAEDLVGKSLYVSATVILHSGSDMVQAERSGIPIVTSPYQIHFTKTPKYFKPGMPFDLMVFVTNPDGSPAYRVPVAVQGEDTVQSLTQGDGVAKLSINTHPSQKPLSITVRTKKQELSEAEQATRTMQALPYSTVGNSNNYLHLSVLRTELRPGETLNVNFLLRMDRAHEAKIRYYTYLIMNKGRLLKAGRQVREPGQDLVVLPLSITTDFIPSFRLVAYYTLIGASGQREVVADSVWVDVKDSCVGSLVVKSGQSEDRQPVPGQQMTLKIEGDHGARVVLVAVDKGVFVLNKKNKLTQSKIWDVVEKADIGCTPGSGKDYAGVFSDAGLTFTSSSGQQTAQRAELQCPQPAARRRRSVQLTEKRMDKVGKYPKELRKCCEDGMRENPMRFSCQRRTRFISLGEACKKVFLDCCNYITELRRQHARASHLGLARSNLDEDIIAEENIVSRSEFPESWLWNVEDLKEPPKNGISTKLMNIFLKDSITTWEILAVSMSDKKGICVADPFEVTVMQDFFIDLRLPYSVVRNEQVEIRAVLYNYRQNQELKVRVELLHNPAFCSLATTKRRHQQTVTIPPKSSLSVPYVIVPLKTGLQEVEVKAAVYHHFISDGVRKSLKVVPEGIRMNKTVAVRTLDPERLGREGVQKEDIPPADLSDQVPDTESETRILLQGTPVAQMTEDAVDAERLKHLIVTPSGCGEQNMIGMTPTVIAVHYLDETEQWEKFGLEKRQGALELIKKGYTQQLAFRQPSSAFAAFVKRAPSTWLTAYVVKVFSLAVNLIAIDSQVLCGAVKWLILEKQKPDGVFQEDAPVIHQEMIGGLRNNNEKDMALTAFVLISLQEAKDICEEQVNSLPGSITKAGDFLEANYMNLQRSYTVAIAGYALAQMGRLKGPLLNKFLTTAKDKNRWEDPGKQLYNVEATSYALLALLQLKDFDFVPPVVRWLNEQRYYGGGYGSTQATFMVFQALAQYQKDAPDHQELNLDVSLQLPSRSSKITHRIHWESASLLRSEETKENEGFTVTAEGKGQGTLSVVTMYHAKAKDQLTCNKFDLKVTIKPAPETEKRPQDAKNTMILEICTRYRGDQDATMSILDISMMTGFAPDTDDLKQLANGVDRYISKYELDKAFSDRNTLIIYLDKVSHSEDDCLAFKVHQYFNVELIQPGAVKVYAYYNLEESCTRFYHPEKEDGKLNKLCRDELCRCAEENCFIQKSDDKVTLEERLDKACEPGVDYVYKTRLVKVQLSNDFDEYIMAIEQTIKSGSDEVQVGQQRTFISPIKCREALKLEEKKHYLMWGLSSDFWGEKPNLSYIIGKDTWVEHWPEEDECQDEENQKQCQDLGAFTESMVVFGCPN
Molecule,"C3b cleavage assay, iC3b ELISA [1]","C3b cleavage assay, iC3b ELISA [2]"
CFI secreted by HEK293 cells transduced with AAV2 bicistronic vector RC289 (coAflibercept-F2A-coCFI),CFI and FHL1 expressed from all bicistronic vectors is functional and can facilitate breakdown of C3b to iC3b,–
CFI secreted by HEK293 cells transduced with AAV2 bicistronic vector RC313 (coCFI-F2A-coAflibercept),CFI and FHL1 expressed from all bicistronic vectors is functional and can facilitate breakdown of C3b to iC3b,–
"recombinant CFI (Complement Technology, Inc, A138) (protein) KVTYTSQEDLVEKKCLAKKYTHLSCDKVFCQPWQRCIEGTCVCKLPYQCPKNGTAVCATNRRSFPTYCQQKSLECLHPGTKFLNNGTCTAEGKFSVSLKHGNTDSEGIVEVKLVDQDKTMFICKSSWSMREANVACLDLGFQQGADTQRRFKLSDLSINSTECLHVHCRGLETSLAECTFTKRRTMGYQDFADVVCYTQKADSPMDDFFQCVNGKYISQMKACDGINDCGDQSDELCCKACQGKGFHCKSGVCIPSQYQCNGEVDCITGEDEVGCAGFASVTQEETEILTADMDAERRRIKSLLPKLSCGVKNRMHIRRKRIVGGKRAQLGDLPWQVAIKDASGITCGGIYIGGCWILTAAHCLRASKTHRYQIWTTVVDWIHPDLKRIVIEYVDRIIFHENYNAGTYQNDIALIEMKKDGNKKDCELPRSIPACVPWSPYLFQPNDTCIVSGWGREKDNERVFSLQWGEVKLISNCSKFYGNRFYEKEMECAGTYDGSIDACKGDSGGPLVCMDANNVTYVWGVVSWGENCGKPEFPGVYTKVANYFDWISYHVGRPFISQYNV",–,C3b incubated with recombinant CFI and FHL1 served as a positive control; C3b breakdown requires the presence of CFI and FHL1
